Measured values published in patent US20240345090A1, “EARLY DETECTION OF INNATE IMMUNE DYSFUNCTION AND TREATMENT OF CONDITIONS ASSOCIATED THEREWITH” (UNIVERSITY OF FLORIDA RESEARCH FOUNDATION, INCORPORATED, priority 2021, published 2024).

Tested on: CD14+ monocytes
Experiment: Flow cytometry count of TH+ monocytes after in vitro treatment
Format: cell-based, human
Settings: healthy donor monocytes, 2 million per well, 4 hours; TPA 100 ng/ml, TNFα 17 ng/ml, IL6 17 ng/ml, XPro1595 50 ng/ml; n=3 per group
Method: Monocytes were isolated from total PBMCs prepared as described above^51 using negative selection (Biolegend, 480048) per manufacturer's instructions. Total PBMCs were Fc-blocked to reduce nonspecific binding, followed by incubations with biotin-conjugated antibody cocktail containing antibodies against all subsets except CD14 (negative selection), followed by incubation with magnetic-Avidin beads, allowing all subsets other than CD14+ monocytes to be bound to the magnet. Monocyte purity/enrichment was routinely verified to confirm that the final cell population was greater than 95% pure CD14+ cells (FIG. S2). CD14+ monocytes were collected from the supernatant fraction, washed, counted and density adjusted such that 2 million CD14+ monocytes were seeded per well (FIG. 5A) and treated for 4 hours with vehicle, TPA (100 ng/ml, Biolegend, 755802)^7, TNFα (17 ng/mL, Biolegend, 570102)^61, XPro1595 (50 ng/ml), or IL6 (17 ng/mL) in an ultra-low-adherence 6-well plate (Corning, 3471) to prevent adherence. Suspended cells from each treatment group were aspirated and placed in a 15 ml conical tube, with any remaining adherent cells detached by incubation with 700 uL Accumax solution for 3 minutes (Innovative Cell Technologies, AM105) and added to suspended cells. […]

B1: TPA: tissue plasminogen activator, positive control for increased monocyte TH expression (Biolegend, 755802) (protein, UniProt P00750 36-562, looked up)
Tissue-type plasminogen …: SYQVICRDEKTQMIYQQHQSWLRPVLRSNRVEYCWCNSGRAQCHSVPVKSCSEPRCFNGGTCQQALYFSDFVCQCPEGFAGKCCEIDTRATCYEDQGISYRGTWSTAESGAECTNWNSSALAQKPYSGRRPDAIRLGLGNHNYCRNPDRDSKPWCYVFKAGKYSSEFCSTPACSEGNSDCYFGNGSAYRGTHSLTESGASCLPWNSMILIGKVYTAQNPSAQALGLGKHNYCRNPDGDAKPWCHVLKNRRLTWEYCDVPSCSTCGLRQYSQPQFRIKGGLFADIASHPWQAAIFAKHRRSPGERFLCGGILISSCWILSAAHCFQERFPPHHLTVILGRTYRVVPGEEEQKFEVEKYIVHKEFDDDTYDNDIALLQLKSDSSRCAQESSVVRTVCLPPADLQLPDWTECELSGYGKHEALSPFYSERLKEAHVRLYPSSRCTSQHLLNRTVTDNMLCAGDTRSGGPQANLHDACQGDSGGPLVCLNDGRMTLVGIISWGLGCGQKDVPGVYTKVTNYLDWIRDNMRP
  number of TH+ monocytes, fold change relative to vehicle: significant increases in TH-expressing monocytes relative to vehicle
